Read-outs that look alike come from different tables or passages of the source. *1 amine or outer side, *2 acyl side, *3 side chain or, on linkers, in order; H or OH if unused. Where no end group is shown, it is not given here. Side-chain parts run from the residue outwards. [ ]: non-standard residue; d: D form. The star is where a group is joined. γGlu = O=C(O)[C@H](CCC(=O)[*:2])N[*:1]; Palmitoyl = CCCCCCCCCCCCCCCC(=O)*; Suc = O=C(CCC(=O)[*:2])[*:1]; Aib = CC(C)(N)C(=O)O; βAla = NCCC(=O)O
B1: peptide of SEQ ID NO: 212 (peptide)
peptide: H[Aib]QGTFTSDYSKYLDERAAQDFVQWLLDGGPSSGAPPPSY(Palmitoyl)G-NH2
modifications: also: Y40 O-2palmitic acid, exact structure not given here
B2: peptide of SEQ ID NO: 140 (peptide)
peptide: Y[Aib]EGTFTSDYSIYLDKQAA[Aib]EFVNWLLAGGPSSGAPPPSK([Suc-Palmitoyl])G-NH2
B3: peptide of SEQ ID NO: 143 (peptide)
peptide: YXEGTFTSDXSIYLDKQAAXEFVNWLLAGGPSSGAPPPS
modifications: aib at 2 and 20; 4-aminoPhe at 10 acylated F(4-aminoγEγEC16); NH2
B4: peptide of SEQ ID NO: 144 (peptide)
peptide: YXEGTFTSDXSIYLDKQAAXEFVNWLLAGGPSSGAPPPS
modifications: aib at 2 and 20; 4-aminoPhe at 10, F(4amino-succinoylC16); NH2
B5: peptide of SEQ ID NO: 91 (peptide)
peptide: Y[Aib]QGTFTSDK([γGlu-γGlu-Palmitoyl])SIYLDKQAA[Aib]EFVNWLLDGGPSSGAPPPS-NH2
modifications: N-terminus assumed
SMILES: CCCCCCCCCCCCCCCC(=O)N[C@@H](CCC(=O)N[C@@H](CCC(=O)NCCCC[C@H](NC(=O)[C@H](CC(=O)O)NC(=O)[C@H](CO)NC(=O)[C@@H](NC(=O)[C@H](Cc1ccccc1)NC(=O)[C@@H](NC(=O)CNC(=O)[C@H](CCC(N)=O)NC(=O)C(C)(C)NC(=O)[C@@H](N)Cc1ccc(O)cc1)[C@@H](C)O)[C@@H](C)O)C(=O)N[C@@H](CO)C(=O)N[C@H](C(=O)N[C@@H](Cc1ccc(O)cc1)C(=O)N[C@@H](CC(C)C)C(=O)N[C@@H](CC(=O)O)C(=O)N[C@@H](CCCCN)C(=O)N[C@@H](CCC(N)=O)C(=O)N[C@@H](C)C(=O)N[C@@H](C)C(=O)NC(C)(C)C(=O)N[C@@H](CCC(=O)O)C(=O)N[C@@H](Cc1ccccc1)C(=O)N[C@H](C(=O)N[C@@H](CC(N)=O)C(=O)N[C@@H](Cc1c[nH]c2ccccc12)C(=O)N[C@@H](CC(C)C)C(=O)N[C@@H](CC(C)C)C(=O)N[C@@H](CC(=O)O)C(=O)NCC(=O)NCC(=O)N1CCC[C@H]1C(=O)N[C@@H](CO)C(=O)N[C@@H](CO)C(=O)NCC(=O)N[C@@H](C)C(=O)N1CCC[C@H]1C(=O)N1CCC[C@H]1C(=O)N1CCC[C@H]1C(=O)N[C@@H](CO)C(N)=O)C(C)C)[C@@H](C)CC)C(=O)O)C(=O)O
B6: peptide of SEQ ID NO: 139 (peptide)
peptide: Y[Aib]EGTFTSDYSIYLDKQAA[Aib]EFVNWLLAGGPSSGAPPPSK(Palmitoyl)G-NH2
B7: Analog No. 37: Aib2, K10acyl, E16, Aib20, E21, L27, D28 (SEQ ID NO: 31) (peptide)
peptide: H[Aib]QGTFTSDK([γGlu-Palmitoyl])SKYLDERRA[Aib]EFVQWLLDT-NH2
modifications: N-terminus assumed
SMILES: CCCCCCCCCCCCCCCC(=O)N[C@@H](CCC(=O)NCCCC[C@H](NC(=O)[C@H](CC(=O)O)NC(=O)[C@H](CO)NC(=O)[C@@H](NC(=O)[C@H](Cc1ccccc1)NC(=O)[C@@H](NC(=O)CNC(=O)[C@H](CCC(N)=O)NC(=O)C(C)(C)NC(=O)[C@@H](N)Cc1c[nH]cn1)[C@@H](C)O)[C@@H](C)O)C(=O)N[C@@H](CO)C(=O)N[C@@H](CCCCN)C(=O)N[C@@H](Cc1ccc(O)cc1)C(=O)N[C@@H](CC(C)C)C(=O)N[C@@H](CC(=O)O)C(=O)N[C@@H](CCC(=O)O)C(=O)N[C@@H](CCCNC(=N)N)C(=O)N[C@@H](CCCNC(=N)N)C(=O)N[C@@H](C)C(=O)NC(C)(C)C(=O)N[C@@H](CCC(=O)O)C(=O)N[C@@H](Cc1ccccc1)C(=O)N[C@H](C(=O)N[C@@H](CCC(N)=O)C(=O)N[C@@H](Cc1c[nH]c2ccccc12)C(=O)N[C@@H](CC(C)C)C(=O)N[C@@H](CC(C)C)C(=O)N[C@@H](CC(=O)O)C(=O)N[C@H](C(N)=O)[C@@H](C)O)C(C)C)C(=O)O
B8: peptide of SEQ ID NO: 203 (peptide)
peptide: H[Aib]QGTFTSDYSKYLDERAAQDFVQWLLAGGPSSGAPPPSK([γGlu-γGlu-Palmitoyl])G-NH2
B9: peptide of SEQ ID NO: 141 (peptide)
peptide: Y[Aib]EGTFTSDYSIYLDKQAA[Aib]EFVNWLLAGGPSSGAPPPSK([βAla-Suc-Palmitoyl])G-NH2
B10: peptide of SEQ ID NO: 90 (peptide)
peptide: H[Aib]QGTFTSDK([γGlu-γGlu-Palmitoyl])SKYLDERAAQDFVQWLLDGGPSSGAPPPS-NH2
modifications: N-terminus assumed
SMILES: CCCCCCCCCCCCCCCC(=O)N[C@@H](CCC(=O)N[C@@H](CCC(=O)NCCCC[C@H](NC(=O)[C@H](CC(=O)O)NC(=O)[C@H](CO)NC(=O)[C@@H](NC(=O)[C@H](Cc1ccccc1)NC(=O)[C@@H](NC(=O)CNC(=O)[C@H](CCC(N)=O)NC(=O)C(C)(C)NC(=O)[C@@H](N)Cc1c[nH]cn1)[C@@H](C)O)[C@@H](C)O)C(=O)N[C@@H](CO)C(=O)N[C@@H](CCCCN)C(=O)N[C@@H](Cc1ccc(O)cc1)C(=O)N[C@@H](CC(C)C)C(=O)N[C@@H](CC(=O)O)C(=O)N[C@@H](CCC(=O)O)C(=O)N[C@@H](CCCNC(=N)N)C(=O)N[C@@H](C)C(=O)N[C@@H](C)C(=O)N[C@@H](CCC(N)=O)C(=O)N[C@@H](CC(=O)O)C(=O)N[C@@H](Cc1ccccc1)C(=O)N[C@H](C(=O)N[C@@H](CCC(N)=O)C(=O)N[C@@H](Cc1c[nH]c2ccccc12)C(=O)N[C@@H](CC(C)C)C(=O)N[C@@H](CC(C)C)C(=O)N[C@@H](CC(=O)O)C(=O)NCC(=O)NCC(=O)N1CCC[C@H]1C(=O)N[C@@H](CO)C(=O)N[C@@H](CO)C(=O)NCC(=O)N[C@@H](C)C(=O)N1CCC[C@H]1C(=O)N1CCC[C@H]1C(=O)N1CCC[C@H]1C(=O)N[C@@H](CO)C(N)=O)C(C)C)C(=O)O)C(=O)O
B11: peptide of SEQ ID NO: 92 (peptide)
peptide: Y[Aib]QGTFTSDK([γGlu-γGlu-Palmitoyl])SIYLDKQAA[Aib]EFVNWLLDT-NH2
modifications: N-terminus assumed
SMILES: CCCCCCCCCCCCCCCC(=O)N[C@@H](CCC(=O)N[C@@H](CCC(=O)NCCCC[C@H](NC(=O)[C@H](CC(=O)O)NC(=O)[C@H](CO)NC(=O)[C@@H](NC(=O)[C@H](Cc1ccccc1)NC(=O)[C@@H](NC(=O)CNC(=O)[C@H](CCC(N)=O)NC(=O)C(C)(C)NC(=O)[C@@H](N)Cc1ccc(O)cc1)[C@@H](C)O)[C@@H](C)O)C(=O)N[C@@H](CO)C(=O)N[C@H](C(=O)N[C@@H](Cc1ccc(O)cc1)C(=O)N[C@@H](CC(C)C)C(=O)N[C@@H](CC(=O)O)C(=O)N[C@@H](CCCCN)C(=O)N[C@@H](CCC(N)=O)C(=O)N[C@@H](C)C(=O)N[C@@H](C)C(=O)NC(C)(C)C(=O)N[C@@H](CCC(=O)O)C(=O)N[C@@H](Cc1ccccc1)C(=O)N[C@H](C(=O)N[C@@H](CC(N)=O)C(=O)N[C@@H](Cc1c[nH]c2ccccc12)C(=O)N[C@@H](CC(C)C)C(=O)N[C@@H](CC(C)C)C(=O)N[C@@H](CC(=O)O)C(=O)N[C@H](C(N)=O)[C@@H](C)O)C(C)C)[C@@H](C)CC)C(=O)O)C(=O)O
B12: mt-405 (SEQ ID NO: 14) (peptide)
peptide: Y[Aib]QGTFTSDYSKYLDEIHQKDFVNWLLAQ-NH2
modifications: not fully specified (residue 20)
B13: peptide of SEQ ID NO: 142 (peptide)
peptide: Y[Aib]EGTFTSDYSIYLDKQAA[Aib]EFVNWLLAGGPSSGAPPPSK([Suc-C18])G-NH2

Key:
Assay in all cases: cell-based or functional assay
glucagon receptor [1] = molecular target: T1, glucagon receptor (UniProt P47871 26-477, limits assumed)
GLP-1 receptor [2] = molecular target: T2, GLP-1 receptor (UniProt P43220 24-463, limits assumed)
GIP receptor [3] = molecular target: T3, GIP receptor (UniProt P48546 22-466, limits assumed)
T3 sequence (looked up): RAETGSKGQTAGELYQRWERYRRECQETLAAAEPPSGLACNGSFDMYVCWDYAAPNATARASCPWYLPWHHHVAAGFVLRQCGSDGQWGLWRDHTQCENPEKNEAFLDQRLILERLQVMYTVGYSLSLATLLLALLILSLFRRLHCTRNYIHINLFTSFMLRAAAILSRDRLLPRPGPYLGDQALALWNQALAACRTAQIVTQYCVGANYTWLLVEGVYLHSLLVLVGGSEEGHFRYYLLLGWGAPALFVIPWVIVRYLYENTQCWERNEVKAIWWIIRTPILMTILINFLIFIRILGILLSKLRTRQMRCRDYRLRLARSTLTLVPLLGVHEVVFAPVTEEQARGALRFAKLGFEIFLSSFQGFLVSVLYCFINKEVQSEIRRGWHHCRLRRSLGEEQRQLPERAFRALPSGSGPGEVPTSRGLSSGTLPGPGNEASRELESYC

glucagon receptor [4] = molecular target: T1, glucagon receptor; remark: listed apart in the source
GLP-1 receptor [5] = molecular target: T2, GLP-1 receptor; remark: listed apart in the source
Target sequence in this assay (P43220 24-463 limits assumed): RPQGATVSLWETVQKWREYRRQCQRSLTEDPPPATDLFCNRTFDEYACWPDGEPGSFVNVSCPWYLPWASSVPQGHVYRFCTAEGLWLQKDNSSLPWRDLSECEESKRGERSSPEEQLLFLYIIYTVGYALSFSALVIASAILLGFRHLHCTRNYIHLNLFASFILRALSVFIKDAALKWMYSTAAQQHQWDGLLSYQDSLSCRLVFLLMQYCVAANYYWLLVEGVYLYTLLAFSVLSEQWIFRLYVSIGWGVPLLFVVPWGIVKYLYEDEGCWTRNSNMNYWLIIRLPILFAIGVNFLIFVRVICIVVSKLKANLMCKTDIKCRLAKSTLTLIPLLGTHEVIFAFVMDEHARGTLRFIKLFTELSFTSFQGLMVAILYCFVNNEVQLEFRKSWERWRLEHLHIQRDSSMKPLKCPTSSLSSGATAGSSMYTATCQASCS

GIP receptor [6] = molecular target: T3, GIP receptor; remark: listed apart in the source
glucagon receptor [7] = molecular target: T1, glucagon receptor; remark: listed apart in the source
GLP-1 receptor [8] = molecular target: T2, GLP-1 receptor; remark: listed apart in the source
GIP receptor [9] = molecular target: T3, GIP receptor; remark: listed apart in the source
glucagon receptor [10] = molecular target: T1, glucagon receptor; remark: listed apart in the source
GLP-1 receptor [11] = molecular target: T2, GLP-1 receptor; remark: listed apart in the source
GIP receptor [12] = molecular target: T3, GIP receptor; remark: listed apart in the source
GIP receptor [13] = molecular target: T3, GIP receptor; remark: listed apart in the source
glucagon receptor [14] = molecular target: T1, glucagon receptor; remark: listed apart in the source
GLP-1 receptor [15] = molecular target: T2, GLP-1 receptor; remark: listed apart in the source

T1 sequence (P47871 26-477 limits assumed): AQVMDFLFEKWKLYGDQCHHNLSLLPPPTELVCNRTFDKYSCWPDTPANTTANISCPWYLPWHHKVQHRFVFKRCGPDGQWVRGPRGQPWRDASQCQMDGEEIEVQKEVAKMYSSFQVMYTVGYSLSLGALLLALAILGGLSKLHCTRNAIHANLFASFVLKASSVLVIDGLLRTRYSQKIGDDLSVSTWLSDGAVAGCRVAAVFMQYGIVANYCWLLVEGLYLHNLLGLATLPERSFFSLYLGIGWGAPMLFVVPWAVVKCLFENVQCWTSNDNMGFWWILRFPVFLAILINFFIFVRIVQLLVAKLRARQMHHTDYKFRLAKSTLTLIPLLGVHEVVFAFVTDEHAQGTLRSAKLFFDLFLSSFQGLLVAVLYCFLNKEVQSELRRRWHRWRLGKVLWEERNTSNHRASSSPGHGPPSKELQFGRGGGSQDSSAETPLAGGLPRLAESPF

Row | Binder | EC50 (cAMP reporter) (GIP receptor [3]) | EC50 (cAMP reporter) (glucagon receptor [4]) | EC50 (cAMP reporter) (GLP-1 receptor [5]) | EC50 (cAMP reporter) (GIP receptor [6]) | EC50 (cAMP reporter) (glucagon receptor [7]) | EC50 (cAMP reporter) (GLP-1 receptor [8]) | other results
1 | B1 |  |  |  |  |  |  | EC50 (cAMP reporter) (glucagon receptor [1]): 7 pM; EC50 (cAMP reporter) (GLP-1 receptor [2]): 4 pM
2 | B2 | 1 pM | 77 pM | 1 pM |  |  |  | 
3 | B3 | 3 pM | 165 pM | 2 pM |  |  |  | 
4 | B4 | 13 pM | > 500 pM | 4 pM |  |  |  | 
5 | B5 |  |  |  | 5 pM | 73 pM | 8 pM | 
6 | B6 | 1 pM | 203 pM | 5 pM |  |  |  | 
7 | B7 |  |  |  | 8 pM | 8 pM | 4.4 pM | EC50 (cAMP reporter) (GIP receptor [9]): 8 pM; EC50 (cAMP reporter) (glucagon receptor [10]): 8 pM; EC50 (cAMP reporter) (GLP-1 receptor [11]): 4.4 pM
8 | B8 |  |  |  |  |  |  | EC50 (cAMP reporter) (GIP receptor [12]): 7 pM; EC50 (cAMP reporter) (glucagon receptor [1]): 3 pM; EC50 (cAMP reporter) (GLP-1 receptor [2]): 1 pM
9 | B9 | 2 pM | 58 pM | 1 pM |  |  |  | 
10 | B10 |  |  |  | 17 pM | 5.6 pM | 2.7 pM | 
11 | B11 |  |  |  | 21 pM | 10.5 pM | 3.1 pM | 
12 | B12 |  |  |  |  |  |  | EC50 (cAMP reporter) (GIP receptor [13]): 3.9 pM; relative activity (to native hormone) (GIP receptor [13]): 425%; EC50 (cAMP reporter) (glucagon receptor [14]): 9.6 pM; relative activity (to native hormone) (glucagon receptor [14]): 797%; EC50 (cAMP reporter) (GLP-1 receptor [15]): 2.2 pM; relative activity (to native hormone) (GLP-1 receptor [15]): 717%
13 | B13 | 1 pM | 121 pM | 4 pM |  |  |  | 

From patent publication US20120238493A1 (INDIANA UNIVERSITY RESEARCH AND TECHNOLOGY, published 2012)
